Reference: article PMC2671166, “Site Directed Mutagenesis of Amino Acid Residues at the Active Site of Mouse Aldehyde Oxidase AOX1” (PLoS ONE, 2009)

Molecular target: the molecule itself
Assay: SEC; purified mAOX1; single peak with an approximate molecular mass of 300 kDa; data not shown

B1: Mouse aldehyde oxidase AOX1 (recombinant, wild-type) (enzyme, UniProt O54754 1-1333, looked up)
chain: MDPIQLLFYVNGQKVVEKNVDPEMMLLPYLRKNLRLTGTKYGCGGGGCGACTVMISRYNPSTKAIRHHPVNACLTPICSLHGTAVTTVEGLGNTRTRLHPIQERIAKCHGTQCGFCTPGMVMSMYALLRNHPEPTLDQLTDALGGNLCRCTGYRPIIDACKTFCKASACCQSKENGVCCLDQEINGLAESQEEDKTSPELFSEEEFLPLDPTQELIFPPELMRIAEKQPPKTRVFYGERVTWISPVTLKELVEAKFKYPQAPIVMGYTSVGPEVKFKGVFHPIIISPDRIEELGVISQARDGLTLGAGLSLDQVKDILADIVQKLPEEKTQTYRALLKHLRTLAGSQIRNMASLGGHIVSRHLDSDLNPLLAVGNCTLNLLSKDGERRIPLSEEFLRKCPEADLKPQEVLVSVNIPWSRKWEFVSAFRQAQRQQNALAIVNSGMRVLFREGGGVIEELSILYGGVGSTIISAKNSCQRLIGRPWNEGMLDTRCRLVLDEVTLAASAPGGKVEFKRTLIISFLFKFYLEVSQGLKREDPGHSPSLAGNHESALDDLHSKHPWRTLTHQNVDPAQLPQDPIGRPIMHLSGIKHATGEAIYCDDMPAVDRELFLTFVTSSRAHAKIVSIDLSEALSLPGVVDIITADHLQEANTFGTETFLATDEVHCVGHLVCAVIADSETRAKQAAKQVKVVYQDLAPLILTIEEAIQHKSFFKSERKLECGNVDEAFKIVDQILEGEIHIGGQEHFYMETQSMLVVPKGEDGEIDIYVSTQFPKYIQDIVAATLKLSANKVMCHVRRVGGAFGGKVGKTSILAAITAFAASKHGRAVRCILERGEDMLITGGRHPYLGKYKAGFMNEGRILALDVEHYCNGGCSLDESLWVIEMGLLKLDNAYKFPNLRCRGWACRTNLPSNTALRGFGFPQAGLVTEACITEVAIKCGLSPEQVRTINMYKHVDTTHYKQEFSAKALSECWRECMAKCSYFERKAAIGKFNAENSWKKRGMAVIPLKFPVGIGSVAMGQAAALVHIYLDGSALVSHGGIEMGQGVHTKMIQVVSRELRMPMSSVHLRGTSTETVPNTNASGGSVVADLNGLAVKDACQTLLKRLEPIISKNPQGTWKDWAQTAFDQSISLSAVGYFRGYESNIDWEKGEGHPFEYFVFGAACSEVEINCLTGDHKNIRTNIVMDVGHSINPALDIGQVEGAFIQGMGLYTIEELSYSPQGTLYSRGPNQYKIPAICDIPTEMHISFLPPSEHSNTLYSSKGLGESGVFLGCSVFFAIHDAVKAARQERGISGPWKLNSPLTPEKIRMACEDKFTKMIPRDEPGSYVPCNIPV
notes: mouse aldehyde oxidase AOX1, cDNA cloned from mouse CD1 liver into the NdeI-SalI sites of pTrcHis (plasmid pSL205); band of 150 kDa on SDS-PAGE; Holds Moco, two [2Fe-2S] clusters and FAD as cofactors; also called mAOX1; mAOX1-WT; source: E. coli TP1000, coexpressed with mMCSF, purified (Ni-NTA, Superose 12, benzamidine sepharose)
stoichiometry N: 2
